Assay results taken from IntAct's records for PubMed 21645854.

B1: FAS-associated factor 1 (Homo sapiens), Q9UNN5-1 (parent)
chain: MASNMDREMILADFQACTGIENIDEAITLLEQNNWDLVAAINGVIPQENGILQSEYGGETIPGPAFNPASHPASAPTSSSSSAFRPVMPSRQIVERQPRMLDFRVEYRDRNVDVVLEDTCTVGEIKQILENELQIPVSKMLLKGWKTGDVEDSTVLKSLHLPKNNSLYVLTPDLPPPSSSSHAGALQESLNQNFMLIITHREVQREYNLNFSGSSTIQEVKRNVYDLTSIPVRHQLWEGWPTSATDDSMCLAESGLSYPCHRLTVGRRSSPAQTREQSEEQITDVHMVSDSDGDDFEDATEFGVDDGEVFGMASSALRKSPMMPENAENEGDALLQFTAEFSSRYGDCHPVFFIGSLEAAFQEAFYVKARDRKLLAIYLHHDESVLTNVFCSQMLCAESIVSYLSQNFITWAWDLTKDSNRARFLTMCNRHFGSVVAQTIRTQKTDQFPLFLIIMGKRSSNEVLNVIQGNTTVDELMMRLMAAMEIFTAQQQEDIKDEDEREARENVKREQDEAYRLSLEADRAKREAHEREMAEQFRLEQIRKEQEEEREAIRLSLEQALPPEPKEENAEPVSKLRIRTPSGEFLERRFLASNKLQIVFDFVASKGFPWDEYKLLSTFPRRDVTQLDPNKSLLEVKLFPQETLFLEAKE

Variants of: B1
Details: with tera_human VCP

Effect of a mutation on the interaction, decreasing interaction:
R621A
P620N
R579A
P640N
F619A
